Reference: doi:10.1101/2022.12.27.521990

Target: Soluble, trimeric spike of SARS-CoV-2/human/China/Wuhan-Hu-1/2019 (residues 1-1204, 6 proline mutations) (SARS-CoV-2) (UniProt P0DTC2)
Assay: SEC

## Soluble, trimeric spike of SARS-CoV-2/human/China/Wuhan-Hu-1/2019 (residues 1-1204, 6 proline mutations) (from UniProt P0DTC2 14-1204) (domain or fragment)
  stoichiometry N: 3
